What was measured:
HT29 cells = assay: In vitro cell viability, HT29; type: cell-based, human; conditions: various concentrations (nM), FIG. 13
[1] = tested on: KM12 human colon carcinoma xenografts; assay: KM12 human colon carcinoma xenografts in athymic nude mice; type: in vivo; conditions: 1, 3 or 10 mpk twice weekly for 3 weeks, 2 day break, FIG. 11
Protocol: Athymic nude mice bearing KM12 human colon carcinoma xenografts were treated with control (vehicle), m8524 (m276) (SEQ ID NOs: 26 and 27) alone (10 mg/kg (mpk)), or m8524 (m276)-MMAE ADCs at various dosages (1 mpk, 3 mpk, or 10 mpk) twice weekly for 3 weeks, followed by a 2 day break, followed by another dose twice weekly for 3 weeks. Tumor volume was measured at various time points after administration.

[2] = tested on: OVCAR3 human ovarian xenografts; assay: OVCAR3 human ovarian xenografts in SCID mice; type: in vivo; conditions: 1, 3 or 10 mpk on days 1, 4, 8 and 11; FIGS. 12 and 15
Protocol: SCID mice bearing OVCAR3 human ovarian xenografts were treated with control (vehicle), m8524 (m276) (SEQ ID NOs: 26 and 27) alone (10 mg/kg (mpk)), MMAE alone (0.2 mpk), or m8524 (m276)-MMAE ADCs at various dosages (1 mpk, 3 mpk, or 10 mpk) on days 1, 4, 8 and 11. Tumor volume was measured at various time points after administration. The results are shown in FIG. 12 (up to Day 11) and FIG. 15 (up to Day 53).

[3] = tested on: MDA-MB231 human breast cancer cells (mammary fat pad); assay: MDA-MB231 human breast cancer orthotopic xenografts in athymic nude mice; type: in vivo; conditions: 1 mpk or 10 mpk twice weekly for 3 weeks; FIG. 16
Protocol: MDA-MB231 human breast cancer cells were implanted in the mammary fat pad of athymic nude mice (orthotopic model). Tumor-bearing mice were treated with control (vehicle), m8524 (m276) (SEQ ID NOs: 26 and 27) alone (10 mg/kg (mpk)), or m8524 (m276)-MMAE ADCs (at a dose of 1 mpk or 10 mpk) twice weekly for 3 weeks. Tumor volume was measured at various time points after administration.

[4] = tested on: HCT-116 human colon cancer xenografts; assay: HCT-116 human colon cancer xenografts in athymic nude mice; type: in vivo; conditions: 1, 3, 10 or 30 mpk twice a week for three weeks; FIGS. 8 and 9
Protocol: Athymic nude mice bearing HCT-116 human colon cancer xenografts were treated with control (vehicle), m8524 (m276) (SEQ ID NOs: 26 and 27) alone (30 mg/kg (mpk)), or m8524 (m276)-MMAE ADCs at various dosages (1 mpk, 3 mpk, 10 mpk, or 30 mpk) twice a week for three weeks. Tumor volume was measured at various time points after administration.

HEK 293 cells (293) = assay: Cell viability of untransduced HEK 293 cells; conditions: 293 cells (low CD276); various concentrations (nM); FIG. 7
Protocol: (§1) HEK 293 cells (293) or HEK 293 cells transduced with CD276 (293/CD276) were treated with MMAE alone, m8524 (m276) (SEQ ID NOs: 26 and 27) antibody alone, m825 (irrelevant control antibody)-ADC, or m8524-ADC. The drug of the ADCs was MMAE.

[5] = tested on: HT29 human colorectal adenocarcinoma xenografts; assay: HT29 human colorectal adenocarcinoma xenografts in athymic nude mice; type: in vivo; conditions: 1, 3 or 10 mpk twice a week for three weeks; FIG. 10
Protocol: Athymic nude mice bearing HT29 human colorectal adenocarcinoma xenografts were treated with control (vehicle), m8524 (m276) (SEQ ID NOs: 26 and 27) alone (10 mg/kg (mpk)), or m8524 (m276)-MMAE ADCs at various dosages (1 mpk, 3 mpk, or 10 mpk) twice a week for three weeks. Tumor volume was measured at various time points after administration.

OVCAR3 cells = assay: In vitro cell viability, OVCAR3; type: cell-based, human; conditions: various concentrations (nM), FIG. 13
293/CD276 cells = assay: Cell viability of HEK 293 cells transduced with CD276; conditions: FIG. 7
Protocol: as §1

HCT116 cells = assay: In vitro cell viability, HCT116; type: cell-based, human; conditions: various concentrations (nM), FIG. 13

B1: m8524-ADC: m8524 antibody conjugated to MMAE via a linking moiety; n is 2, 4, 6, or 8 (conjugate)
VH: QVQLQQSGAEVKKPGSSVKVSCKASGGTFSSYAISWVRQAPGQGLEWMGGIIPILGIANYAQKFQGRVTITADESTSTAYMELSSLRSEDTAVYYCARGGSGSYHMDVWGKGTTVTVSS
VL: EIVLTQSPATLSLSPGERATLSCRASQSVSSYLAWYQQKPGQAPRLLIYDASNRATGIPARFSGSGSGTDFTLTISSLEPEDFAVYYCQQRSNWPPRITFGQGTRLEIK
cell viability (HT29 cells): decreased
tumor volume as compared to control or m8524 (m276) alone [1]: decreased
tumor volume as compared to control, MMAE alone, or m8524 (m276) alone [2]: decreased
tumor volume as compared to control or m8524 (m276) alone [3]: decreased
tumor volume as compared to control or m8524 (m276) alone [4]: decreased
cytotoxicity (cell viability, % of control) (HEK 293 cells (293)): selectively cytotoxic
tumor volume as compared to control or m8524 (m276) alone [5]: decreased
cell viability (OVCAR3 cells): decreased
cytotoxicity (cell viability, % of control) (293/CD276 cells; 293/CD276 cells (high CD276), various concentrations (nM)): selectively cytotoxic
selectivity for CD276-expressing cells (293/CD276 cells; 293/CD276 versus 293 cells): toxicity corresponding to CD276 expression levels
cell viability (HCT116 cells): decreased

— patent US11851498B2, “Anti-CD276 antibodies (B7H3)” (THE UNITED STATES OF AMERICA, as represented by THE …, priority 2014, dated 2023)
